Measured values reported in patent US20230213527A1 (published 2023).
Primed or numbered codes have the meaning given here. Ends that are not written are not given here. FITC′ = not defined here

Assays:
Assay in all cases: fluorescence polarization
[1] = target: labeled peptide with N-terminal isoleucine (X…-FITC, SEQ ID NO: 833, X = I) (C-terminal FITC label)
[2] = target: T1, labeled peptide with N-terminal leucine (XAKLDEESILKQK-FITC, SEQ ID NO: 833, X = L)
T1 peptide: LAKLDEESILKQK-{FITC′}

[3] = target: labeled peptide with N-terminal valine (X…-FITC, SEQ ID NO: 833, X = V) (C-terminal FITC label)

B1: PS961 (designed binder)
chain: MPTAASATESAIEDTPAPARPEVDGRTKPKRQPRYHVVLWDDDDHTYQYVVVMLRSLFGHPPSRGYRMAKEMDTQGRVIVLTTTREHAELKRDQIHAFGRDRLLARSKGSMKASIEAEE
Kd [1]: 68 nM
Kd [2]: 55 nM
Kd [3]: 144 nM
